Measured values as given in patent publication US20020065226A1.
Each block holds one molecule with its values, some of them ahead of it. Non-standard residues stand in square brackets, D forms with d. pGlu = O=C1CC[C@@H](C(=O)O)N1; azaGly = NNC(=O)O

What was measured:
[1] = target: chorionic peptidase-1 (C-ase-1) (human); experiment: competitive inhibition of C-ase-1 degradation of GnRH
[2] = target: chorionic peptidase-1 (C-ase-1) (human); experiment: competitive inhibition of C-ase-1 degradation of GnRH (competitor)
[3] = target: human placental GnRH receptor (human) (UniProt P30968); experiment: competitive radioreceptor assay, human term placental GnRH receptors, 125I-Buserelin as competitor
[4] = target: chorionic peptidase-1 (C-ase-1) (human); experiment: inhibition of C-ase-1 degradation of GnRH (competitor)
[5] = target: baboon ovarian enzymatic activity that degrades GnRH; experiment: degradation assay with baboon ovarian homogenate, double reciprocal plot
[6] = target: chorionic peptidase-1 (C-ase-1) (human); experiment: C-ase-1 degradation assay, Lineweaver-Burke double reciprocal plot
[7] = target: chorionic peptidase-1 (C-ase-1) (human); experiment: cell-based or functional assay
[8] = target: chorionic peptidase-1 (C-ase-1) (human); experiment: competitive inhibition of C-ase-1 degradation of mammalian GnRH (competitor)
[9] = target: human placental GnRH receptor (human) (UniProt P30968); experiment: competitive radioreceptor assay on human term placental membranes, radiolabeled Buserelin as competitor
[10] = target: baboon ovarian GnRH receptor (baboon); experiment: radioligand binding, baboon ovary membrane fraction
[11] = target: human placental GnRH receptor (human) (UniProt P30968); experiment: homologous radioreceptor assay on human term placental membranes, radiolabeled D-Arg-chicken II GnRH-aza-Gly-amide as label
[12] = target: human placental GnRH receptor (human) (UniProt P30968); experiment: homologous radioreceptor assay, average of three human term placental membrane preparations
[13] = target: human placental GnRH receptor (human) (UniProt P30968); experiment: radioreceptor assay on human term placental membranes, radiolabeled D-Arg(6)-chicken II GnRH-aza-Gly-amide as label
[14] = target: baboon endometrium GnRH receptor (baboon); experiment: receptor binding, baboon endometrium (stroma and epithelium)
[15] = target: human placental GnRH receptor (human) (UniProt P30968); experiment: competitive radioreceptor assay on human term placental membranes, radiolabeled Buserelin as competitor, double reciprocal plot
[16] = target: baboon ovarian GnRH receptor (baboon); experiment: radioreceptor assay, baboon ovary membrane fraction, radiolabeled D-Arg(6)-chicken II GnRH-aza-Gly(10)-amide
[17] = target: human placental GnRH receptor (human) (UniProt P30968); experiment: homologous radioreceptor assay, placenta 2 membrane preparation, radiolabeled D-Arg(6)-chicken II GnRH-aza-Gly-amide as label

Molecule: chicken I GnRH (peptide)
fold less potent than GnRH [1]: 3 fold
fold more potent than salmon or chicken II GnRH [1]: 2 fold
relative potency compared to GnRH (relative potency) [4]: 0.6
Ki [2]: 80 nM

Molecule: mammalian GnRH (from UniProt P01148 24-33) (peptide)
Ki [2]: 30 nM
Ks [5]: 30 nM
Ks [6]: 30 nM

Molecule: des-Gly10, D-Leu6-GnRH-ethylamide (from UniProt P01148 24-92) (peptide)
Ki [2]: 80 nM

Molecule: 9OH-Pro-GnRH (from UniProt P01148 24-92) (peptide)
relative potency compared to GnRH (relative potency) [4]: 1.5

Molecule: chicken II GnRH (peptide)
relative potency compared to GnRH (relative potency) [4]: 0.2
potency relative to mammalian GnRH [8]: 0.167 fold
Ki [2]: 200 nM
fold potency over mammalian GnRH [9]: 3 fold

B1: D-Arg(6)-chicken II GnRH-aza-Gly(10)-amide (peptide)
peptide: [pGlu]HWSH[dR]WYP[azaGly]-NH2
modifications: also: also used radioiodinated as label
specific activity of binding, fold over placental membrane preparations [10]: 50 to 100 fold
fold change of affinity against the assay with the Buserelin label [11]: 2 fold
Kd [12]: 93 nM
fold affinity over mammalian GnRH [13]: 25 fold
Kd [14]: 60 nM
Kd [15]: 175 nM
Kd [16]: 10 nM
Kd [17]: 68 nM
fold affinity over chicken II GnRH or Buserelin [9]: 2 fold
fold affinity over mammalian GnRH [9]: 60 fold

More lines, in order of falling Ki [2], values ahead:

relative potency compared to GnRH (relative potency) [4]: 0.2
Ki [2]: 300 nM
Molecule: salmon GnRH (peptide)

Ki [2]: 200 nM
Molecule: D-Arg (6)-salmon GnRH-aza-Gly (10)-amide (peptide)

fold less active than GnRH [1]: > 200 fold
Ki [2]: 130 nM
Kd [3]: 30 nM
fold activity over GnRH [3]: 33 fold
Molecule: chicken II GnRH-ethylamide (peptide)

fold less potent than GnRH [1]: 3 fold
fold more potent than salmon or chicken II GnRH [1]: 2 fold
relative potency compared to GnRH (relative potency) [4]: 0.6
Ki [2]: 120 nM
Molecule: Antide (peptide)

Ki [2]: 110 nM
rate of degradation by C-ase-1 (fold of the rate for mammalian GnRH) [7]: 0.25
Molecule: Buserelin (from UniProt P01148 24-32) (peptide)

Ki [2]: 70 nM
Molecule: des-Gly10-GnRH-ethylamide (from UniProt P01148 24-92) (peptide)

Ki [2]: 60 nM
Molecule: 6D-Trp-GnRH-10 ethylamide (from UniProt P01148 24-32) (peptide)

relative potency compared to GnRH (relative potency) [4]: 1.5
Ki [2]: 20 nM
Molecule: lamprey GnRH (peptide)

Ki [2]: 20 nM
Molecule: Mammalian D-Trp (6) GnRH (from UniProt P01148 24-92) (peptide)
